Data on 33 molecules can be found in patent US20260274955A1 (JANUX THERAPEUTICS, published 2026).

Assay [1] addresses T1, anti-CD28 Fab (SEQ ID NOs: 202, 203).
T1 construct: biotinylated and captured on neutravidin coated plates in the phage ELISA
The assay is described as follows: phage ELISA on captured Fab, wells pre-incubated with CD28 antigen (competitor).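 Note: clonal phage ELISA with wells pretreated with CD28 plus blocking buffer before phage addition, bound phage detected by HRP-linked anti-M13 antibody, reference wells got blocking buffer only.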 Background: In an ELISA, binding on a coated surface is turned into a signal by an enzyme label.
Experimental: (§1) Clonal phage were harvested as crude supernatants and screened via standard ELISAs. […] Prior to the addition of clonal phage, wells were incubated with blocking buffer and CD28 antigen or blocking buffer alone. Without washing or aspirating, clonal phage supernatants were then added to the wells and incubated for a short time. Wells were then washed followed by detection of bound phage using a horse radish conjugated anti-M13 antibody.

Assay [2] has the same target. The assay is described as follows: phage ELISA on captured Fab.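 Note: ELISA with clonal phage supernatants added to wells preincubated with CD28 antigen or with blocking buffer only, bound phage detected by HRP-conjugated anti-M13 antibody.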
Experimental: as §1

T1 sequence (VH, as listed by the source, chain 1 of 2): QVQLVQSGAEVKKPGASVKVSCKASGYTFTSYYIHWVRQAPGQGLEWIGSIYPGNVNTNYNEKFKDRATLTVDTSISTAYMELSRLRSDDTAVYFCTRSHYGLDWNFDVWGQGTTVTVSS
T1 sequence (VL, as listed by the source, chain 2 of 2): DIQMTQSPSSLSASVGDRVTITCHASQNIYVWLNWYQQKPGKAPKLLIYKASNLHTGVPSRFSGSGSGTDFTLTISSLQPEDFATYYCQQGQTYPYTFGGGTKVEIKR

B1: Phage-485 (peptide)
peptide: YCEGHMWEYMAKCL
notes: on phage, pIII fusion
With B1, the “Anti-CD28 Fab signal in the presence of CD28” value (shortened to “Anti-CD28 Fab signal”) in assay [1] amounted to 0.13. Besides, in assay [2], the “Anti-CD28 Fab (SEQ ID NOs: 202, 203) signal” value stood at 1.64.

B2: Phage-481 (peptide)
peptide: YCEGHSAQYMHKCL
notes: on phage, pIII fusion
On to B2, for which, in assay [1], the “Anti-CD28 Fab signal” value was 0.06. Also, the “Anti-CD28 Fab (SEQ ID NOs: 202, 203) signal” value in assay [2] was found to be 1.64.

B3: Phage-479 (peptide)
peptide: YCDGHGPQYIQKCL
notes: on phage, pIII fusion
For the molecule B3, the “Anti-CD28 Fab signal” value in assay [1] was found to be 0.07. Besides, in assay [2], the “Anti-CD28 Fab (SEQ ID NOs: 202, 203) signal” value was 1.64.

B4: Phage-566 (peptide)
peptide: YCDGHSPQYIQKCL
notes: on phage, pIII fusion
For the molecule B4, the “Anti-CD28 Fab signal” value in assay [1] amounted to 0.07. Further, the “Anti-CD28 Fab (SEQ ID NOs: 202, 203) signal” value in assay [2] stood at 1.5.

B5: Phage-483 (peptide)
peptide: YCAGHVAEYMAKCL
notes: on phage, pIII fusion
For B5, the “Anti-CD28 Fab signal” value in assay [1] was determined as 0.06. Besides, in assay [2], the “Anti-CD28 Fab (SEQ ID NOs: 202, 203) signal” value is 1.64.

B6: Phage-495 (peptide)
peptide: YCDGHSEAFMQKCL
notes: on phage, pIII fusion
For B6, in assay [1], the “Anti-CD28 Fab signal” value came to 0.07. Also, the “Anti-CD28 Fab (SEQ ID NOs: 202, 203) signal” value in assay [2] came to 1.63.

B7: Phage-492 (peptide)
peptide: YCEGHLEQYMQKCL
notes: on phage, pIII fusion
For B7, the “Anti-CD28 Fab signal” value in assay [1] is 0.06. Moreover, the “Anti-CD28 Fab (SEQ ID NOs: 202, 203) signal” value in assay [2] stood at 1.63.

B8: Phage-477 (peptide)
peptide: YCDGHAQEYRLKCL
notes: on phage, pIII fusion
On to B8, for which, in assay [1], the “Anti-CD28 Fab signal” value came to 0.07. Further, the “Anti-CD28 Fab (SEQ ID NOs: 202, 203) signal” value in assay [2] was determined as 1.65.

B9: Phage-474 (peptide)
peptide: YCEGHSLMYMWKCL
notes: on phage, pIII fusion
On to B9, for which, in assay [1], the “Anti-CD28 Fab signal” value stood at 0.08. For the same molecule, the “Anti-CD28 Fab (SEQ ID NOs: 202, 203) signal” value in assay [2] turned out to be 1.65.

B10: Phage-563 (peptide)
peptide: YCEGHSLMYMAKCL
notes: on phage, pIII fusion
Turning to B10, the “Anti-CD28 Fab signal” value in assay [1] worked out at 0.06. In assay [2], the “Anti-CD28 Fab (SEQ ID NOs: 202, 203) signal” value worked out at 1.5.

B11: Phage-473 (peptide)
peptide: YCEGHLAVYMEKCL
notes: on phage, pIII fusion
Consider B11, for which the “Anti-CD28 Fab signal” value in assay [1] came to 0.12. Besides, the “Anti-CD28 Fab (SEQ ID NOs: 202, 203) signal” value in assay [2] stood at 1.65.

B12: Phage-491 (peptide)
peptide: YCDGHLDVYRAKCL
notes: on phage, pIII fusion
Regarding B12, the “Anti-CD28 Fab signal” value in assay [1] turned out to be 0.09. Further, the “Anti-CD28 Fab (SEQ ID NOs: 202, 203) signal” value in assay [2] worked out at 1.63.

B13: Phage-493 (peptide)
peptide: YCEGHSWVYMAKCL
notes: on phage, pIII fusion
Consider B13, for which the “Anti-CD28 Fab signal” value in assay [1] came to 0.07. Besides, in assay [2], the “Anti-CD28 Fab (SEQ ID NOs: 202, 203) signal” value is 1.63.

B14: Phage-467 (peptide)
peptide: YCDGHSPEYIGKCL
notes: on phage, pIII fusion
As to B14, the “Anti-CD28 Fab signal” value in assay [1] worked out at 0.07. Further, in assay [2], the “Anti-CD28 Fab (SEQ ID NOs: 202, 203) signal” value amounted to 1.66.

B15: Phage-494 (peptide)
peptide: YCDGHSLEYIGKCL
notes: on phage, pIII fusion
With B15, the “Anti-CD28 Fab signal” value in assay [1] stood at 0.06. For the same molecule, the “Anti-CD28 Fab (SEQ ID NOs: 202, 203) signal” value in assay [2] is 1.63.

B16: Phage-484 (peptide)
peptide: YCDGHATEYMQKCL
notes: on phage, pIII fusion
As to B16, the “Anti-CD28 Fab signal” value in assay [1] is 0.1. Also, the “Anti-CD28 Fab (SEQ ID NOs: 202, 203) signal” value in assay [2] is 1.64.

B17: Phage-489 (peptide)
peptide: YCAGHAPEYMSKCL
notes: on phage, pIII fusion
As to B17, the “Anti-CD28 Fab signal” value in assay [1] came out at 0.05. Also, the “Anti-CD28 Fab (SEQ ID NOs: 202, 203) signal” value in assay [2] turned out to be 1.63.

B18: Phage-490 (peptide)
peptide: YCEGHSSEYMWKCL
notes: on phage, pIII fusion
Turning to B18, the “Anti-CD28 Fab signal” value in assay [1] amounted to 0.09. For the same molecule, the “Anti-CD28 Fab (SEQ ID NOs: 202, 203) signal” value in assay [2] amounted to 1.63.

B19: Phage-470 (peptide)
peptide: YCDGHDVEYMAKCL
notes: on phage, pIII fusion
As for B19, the “Anti-CD28 Fab signal” value in assay [1] amounted to 0.07. The “Anti-CD28 Fab (SEQ ID NOs: 202, 203) signal” value in assay [2] amounted to 1.66.

B20: Phage-522 (peptide)
peptide: YCDGHRVEYMAKCL
notes: on phage, pIII fusion
As for B20, the “Anti-CD28 Fab signal” value in assay [1] was 0.09. Also, the “Anti-CD28 Fab (SEQ ID NOs: 202, 203) signal” value in assay [2] was determined as 1.58.

B21: Phage-486 (peptide)
peptide: YCDGHDVEYMSKCL
notes: on phage, pIII fusion
With B21, the “Anti-CD28 Fab signal” value in assay [1] came to 0.05. For the same molecule, the “Anti-CD28 Fab (SEQ ID NOs: 202, 203) signal” value in assay [2] stood at 1.64.

B22: Phage-472 (peptide)
peptide: YCDGHSLLYLSKCL
notes: on phage, pIII fusion
In the case of B22, the “Anti-CD28 Fab signal” value in assay [1] is 0.07. Also, the “Anti-CD28 Fab (SEQ ID NOs: 202, 203) signal” value in assay [2] stood at 1.65.

B23: Phage-478 (peptide)
peptide: YCDGHSAEYLLKCL
notes: on phage, pIII fusion
For B23, the “Anti-CD28 Fab signal” value in assay [1] stood at 0.07. Moreover, the “Anti-CD28 Fab (SEQ ID NOs: 202, 203) signal” value in assay [2] came to 1.65.

B24: Phage-561 (peptide)
peptide: YCDGHSAEYLSKCL
notes: on phage, pIII fusion
In the case of B24, in assay [1], the “Anti-CD28 Fab signal” value was 0.07. In assay [2], the “Anti-CD28 Fab (SEQ ID NOs: 202, 203) signal” value was found to be 1.51.

B25: Phage-464 (peptide)
peptide: YCEGHLPMYMIKCL
notes: on phage, pIII fusion
Regarding B25, in assay [1], the “Anti-CD28 Fab signal” value was 0.09. In addition, the “Anti-CD28 Fab (SEQ ID NOs: 202, 203) signal” value in assay [2] turned out to be 1.66.

B26: Phage-465 (peptide)
peptide: YCEGHLPQYMRPCL
notes: on phage, pIII fusion
As for B26, the “Anti-CD28 Fab signal” value in assay [1] amounted to 0.08. For the same molecule, the “Anti-CD28 Fab (SEQ ID NOs: 202, 203) signal” value in assay [2] came out at 1.66.

B27: Phage-487 (peptide)
peptide: YCAGHSLEYMQKCL
notes: on phage, pIII fusion
Take B27: the “Anti-CD28 Fab signal” value in assay [1] was found to be 0.07. In addition, the “Anti-CD28 Fab (SEQ ID NOs: 202, 203) signal” value in assay [2] turned out to be 1.63.

B28: Phage-468 (peptide)
peptide: YCAGHLPEFMDKCL
notes: on phage, pIII fusion
Turning to B28, the “Anti-CD28 Fab signal” value in assay [1] is 0.06. Moreover, in assay [2], the “Anti-CD28 Fab (SEQ ID NOs: 202, 203) signal” value worked out at 1.66.

B29: Phage-480 (peptide)
peptide: YCEGHIAEYMQKCL
notes: on phage, pIII fusion
With B29, in assay [1], the “Anti-CD28 Fab signal” value stood at 0.13. The “Anti-CD28 Fab (SEQ ID NOs: 202, 203) signal” value in assay [2] was 1.64.

B30: Phage-488 (peptide)
peptide: YCEGHDLIYMWKCL
notes: on phage, pIII fusion
Consider B30, for which the “Anti-CD28 Fab signal” value in assay [1] came to 0.06. Moreover, the “Anti-CD28 Fab (SEQ ID NOs: 202, 203) signal” value in assay [2] was 1.63.

B31: Phage-482 (peptide)
peptide: YCEGHTAEHMQKCL
notes: on phage, pIII fusion
Take B31: the “Anti-CD28 Fab signal” value in assay [1] turned out to be 0.05. In assay [2], the “Anti-CD28 Fab (SEQ ID NOs: 202, 203) signal” value came to 1.64.

B32: Phage-475 (peptide)
peptide: YCAGHAAEYMTKCL
notes: on phage, pIII fusion
Regarding B32, in assay [1], the “Anti-CD28 Fab signal” value was 0.07. Further, in assay [2], the “Anti-CD28 Fab (SEQ ID NOs: 202, 203) signal” value turned out to be 1.65.

B33: Phage-466 (peptide)
peptide: YCEGHLSQYMSKCL
notes: on phage, pIII fusion
In the case of B33, in assay [1], the “Anti-CD28 Fab signal” value turned out to be 0.07. In assay [2], the “Anti-CD28 Fab (SEQ ID NOs: 202, 203) signal” value stood at 1.66.
